These results are taken from article PMC8808179 (The Journal of Biological Chemistry, 2021).

For test [1], the target named is human interleukin (IL)-13 (Homo sapiens, UniProt P35225). Nature of the test: KinExA.
For test [2], the target named is T1, cynomolgus monkey (nonhuman primate) IL-13 (Macaca fascicularis).
T1 chain: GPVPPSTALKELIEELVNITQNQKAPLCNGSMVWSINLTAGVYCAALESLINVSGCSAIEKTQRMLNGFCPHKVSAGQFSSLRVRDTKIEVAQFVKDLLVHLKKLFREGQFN
Nature of the test: KinExA. In general terms: Kinetic exclusion samples the free partner from a solution-phase mixture.

The target in test [3] is T1, cynomolgus monkey (nonhuman primate) …. Nature of the test: flow cytometry on cells. A general note: A flow cytometer gives signals particle by particle.

Substitutions are numbered along the chain they refer to.

Sequence of human interleukin (IL)-13 (P35225 25-146): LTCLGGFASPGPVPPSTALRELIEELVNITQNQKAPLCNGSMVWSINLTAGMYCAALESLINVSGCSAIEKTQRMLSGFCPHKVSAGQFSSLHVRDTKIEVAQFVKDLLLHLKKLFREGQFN

B1: antibody 731 (antibody, V domains shown)
VH: EVQLLESGGGLVQPGGSLRLSCAASGFTFSSYAMSWVRQAPGKGLEWVSAFSGSGGSTYYADSVKGRFTISRDNSKNTLYLQMNSLRAEDTAVYYCVQDGLGPYFYNYGMDVWGQGTTVTVSS
VL: SYELTQPPSVSVSPGQTASITCSGDKLGDKYTCWFQQKPGQSPVLVIYHDSKRPSGIPERFSGSNSGDTATLTISGTQAMDEADYYCQAWDSSTYVFGTGTKVTVL
For B1, the results for the dissociation constant (Kd) in test [1] and in test [2] were 1.9 pM and 3550 pM, respectively.

B2: MMAb1 (LC1/HC2) (antibody, V domains shown)
VH: B1 VH with M34G
VL: B1 VL with T32S, C33F
In the case of B2, the values for the Kd in test [1] and in test [2] were 0.295 pM and 18.7 pM, respectively.

B3: HC2 (heavy-chain variant of Ab731 with the parental light chain), membrane-tethered on the cell surface (antibody, V domains shown)
VH: B1 VH with M34G
VL: B1 VL
Regarding B3, in test [3], the binding result is reported as “binds”.

B4: HC1 (heavy-chain variant of Ab731 with the parental light chain), membrane-tethered on the cell surface (antibody, V domains shown)
VH: B1 VH with S54W, G55D, G56V
VL: B1 VL
On to B4, for which, in test [3], the binding result is on record as “binds”.

B5: MMAb2 (LC2/HC2) (antibody, V domains shown)
VH: B1 VH with M34G
VL: B1 VL with T32A, C33F
In the case of B5, the Kd (as a rule, the constant that tells how readily two partners part at equilibrium) in test [1] turned out to be 0.142 pM; in test [2] it was 12.4 pM.

B6: MMAb3 (LC1/HC1) (antibody, V domains shown)
VH: B1 VH with S54W, G55D, G56V
VL: B1 VL with T32S, C33F
For B6, the figures for the Kd in test [1] and in test [2] were 0.034 pM and 5.1 pM, respectively.
